In patent JP2012233002A:

How the values were obtained:
[1] = biological target: 可溶性Aβ1−42 (soluble synthetic Aβ1-42 sonicated in DMSO, 125I-labelled) (human) (UniProt P05067); test: capture radioimmunoassay, 50,000 CPM 125I-Aβ1-42 (or 125I-Aβ1-40)
[2] = biological target: 凝集型Aβ1−42 (aggregated synthetic Aβ1-42) (human) (UniProt P05067); test: ELISA on aggregated synthetic Aβ1-42
[3] = biological target: Aβ (β-amyloid peptide; length and physical form not specified in the assay) (human) (UniProt P05067); test: BIAcore (SPR)
[4] = biological target: Aβ (β-amyloid peptide; length and physical form not specified in the assay) (human) (UniProt P05067); test: Biacore (SPR)

## マウス10D5 (mouse monoclonal antibody 10D5)
[1]
  percent of radioactive counts bound at 10 μg/ml antibody: 2%
[2]
  affinity (親和性): < 1 nM

## マウス3D6 (mouse monoclonal antibody 3D6)
[3]
  Kd: 0.00088 µM

## 組換えマウス12A11Cγ2a(アイソタイプスイッチ12A11) (antibody)
[4]
  Kd: 0.038 µM
